Measurements from patent US20260008817A1, “CYCLIC PEPTIDE OR SALT THEREOF, AND USES THEREOF” (FUJIFILM Corporation, priority 2023, published 2026).
Positions of bridges follow the written chain, without caps; N, C: chain ends. No end group written: not given here. COCH2 = acetyl group that carries the bridge

These substances were tested against T1, Recombinant Human FGFR1 alpha (IIIc) Fc Chimera Protein (Homo sapiens, UniProt P11362) (assay: ELISA binding affinity of enzymatically synthesized peptide to FGFR). Details: ELISA luminescence signal at 10 nmol/L peptide, SEQ ID NO: 239 standardized to 1; enzyme synthesis product.
T1 construct: purchased R&D systems 658-FR-050
In short: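 Cell-free PUREfrex-translated cyclic peptides (Myc/HiBiT-tagged, quantified by HiBiT luminescence) bound 3 h at room temperature to immobilized FGFR1α(IIIc)-Fc, detected with anti-Myc and chemiluminescence. FGFR-specific signal at 10 nmol/L normalized to a reference cyclic peptide and graded A–D.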

T1 sequence (P11362 with tags, fused parts or gaps limits assumed): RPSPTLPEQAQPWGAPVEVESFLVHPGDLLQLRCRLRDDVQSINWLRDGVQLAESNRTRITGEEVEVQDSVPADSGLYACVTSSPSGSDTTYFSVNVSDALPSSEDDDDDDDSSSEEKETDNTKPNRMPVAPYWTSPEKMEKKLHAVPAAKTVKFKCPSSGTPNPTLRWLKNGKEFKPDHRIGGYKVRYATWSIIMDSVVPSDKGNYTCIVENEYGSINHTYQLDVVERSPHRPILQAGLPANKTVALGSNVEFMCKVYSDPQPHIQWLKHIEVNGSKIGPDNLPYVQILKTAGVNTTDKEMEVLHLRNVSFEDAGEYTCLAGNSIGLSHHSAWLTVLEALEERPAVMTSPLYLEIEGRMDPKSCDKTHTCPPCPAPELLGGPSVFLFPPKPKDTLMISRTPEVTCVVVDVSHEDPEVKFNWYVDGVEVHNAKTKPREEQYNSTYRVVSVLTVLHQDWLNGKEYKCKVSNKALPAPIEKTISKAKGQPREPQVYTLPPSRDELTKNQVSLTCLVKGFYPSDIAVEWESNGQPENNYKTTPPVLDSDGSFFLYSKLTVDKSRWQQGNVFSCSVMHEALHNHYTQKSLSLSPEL

| Substance | Evaluation result of binding affinity to FGFR |
| --- | --- |
| 233 (ICVYTFDAHAHSLHAALTK(COCH2)S; thioether 2-19 (inferred)) [compound 233] | C (0.1 or more and less than 0.5) |
| 234 (ICVYTFDAHAHSLHAALTK(COCH2)T; thioether 2-19 (inferred)) [compound 234] | C (0.1 or more and less than 0.5) |
| 235 (ICVYTFDAHAHSLHAALTK(COCH2)R; thioether 2-19 (inferred)) [compound 235] | A (0.7 or more) |
| 236 (ICVYTFDAHAHSLHAALTK(COCH2)H; thioether 2-19 (inferred)) [compound 236] | A (0.7 or more) |
| 237 (VCIYTFNHLAQTYWQSLNK(COCH2)V; thioether 2-19 (inferred)) [compound 237] | A (0.7 or more) |
| 238 (VCIWVFNRFAHTLKESLTK(COCH2)V; thioether 2-19 (inferred)) [compound 238] | C (0.1 or more and less than 0.5) |
| 239 (ACVWTFDRHAQEISQALHKV; not fully specified (residue 19, bridges); also: cyclic peptide, ring not given here) [compound 239] | A (0.7 or more) |
| 240 (ACVYLFNWRATSYGKSLIK(COCH2)W; thioether 2-19 (inferred)) [compound 240] | A (0.7 or more) |
| 241 (HCKLYSYPLWYWPKWVFQTK(COCH2)E; thioether 2-20 (inferred)) [compound 241] | C (0.1 or more and less than 0.5) |
| 242 (ACGVHQWEIGEWFGYRYYYK(COCH2)P; thioether 2-20 (inferred)) [compound 242] | B (0.5 or more and less than 0.7) |
| 243 (QCYLPSWFYQKARLLFQYIK(COCH2)S; thioether 2-20 (inferred)) [compound 243] | C (0.1 or more and less than 0.5) |
| 244 (DCTQGKILTYSQALFSFGVK(COCH2)I; thioether 2-20 (inferred)) [compound 244] | A (0.7 or more) |
| 245 (NCVYYAKPVFAHANRVWTYIK(COCH2)I; thioether 2-21 (inferred)) [compound 245] | A (0.7 or more) |
| 246 (PCIYTFDQSAIKYKIGFVLRK(COCH2)V; thioether 2-21 (inferred)) [compound 246] | C (0.1 or more and less than 0.5) |
| 248 (QCWLQGPYWSDIKIYIYQHDK(COCH2)Y; thioether 2-21 (inferred)) [compound 248] | C (0.1 or more and less than 0.5) |
| 249 (VCVRPIFIFSFRAPFNAVDWK(COCH2)I; thioether 2-21 (inferred)) [compound 249] | C (0.1 or more and less than 0.5) |
| 251 (TCWTAWQWFGHWVPFVAK(COCH2)T; thioether 2-18 (inferred)) [compound 251] | C (0.1 or more and less than 0.5) |
| 252 (RCVYSFDPARYPYHLKK(COCH2)V; thioether 2-17 (inferred)) [compound 252] | A (0.7 or more) |
| 253 (TCFSPGQIWIWTHLVTAIRNK(COCH2)T; thioether 2-21 (inferred)) [compound 253] | B (0.5 or more and less than 0.7) |
| 254 (LCVYTFNWQQKFGHHLTK(COCH2)I; thioether 2-18 (inferred)) [compound 254] | C (0.1 or more and less than 0.5) |
| 255 (FCTLWQFGNLVWTHESPFIK(COCH2)Q; thioether 2-20 (inferred)) [compound 255] | C (0.1 or more and less than 0.5) |
| 256 (DCVYQYDRNAHYWDTALVK(COCH2)V; thioether 2-19 (inferred)) [compound 256] | A (0.7 or more) |
| 257 (FCAWVVDYQELHQFWSIVQK(COCH2)I; thioether 2-20 (inferred)) [compound 257] | C (0.1 or more and less than 0.5) |
| 258 (VCVRPIFIFSFRAPFNAVDWK(COCH2)N; thioether 2-21 (inferred)) [compound 258] | A (0.7 or more) |
| 259 (TCNIWQFNPAARWGFHLVYK(COCH2)Y; thioether 2-20 (inferred)) [compound 259] | C (0.1 or more and less than 0.5) |

| Substance | Evaluation result of binding affinity to FGFR |
| --- | --- |
| 260 (ICREVIVGSLYTWDGNRGFFKV; Description of Artificial Sequence: Cyclic peptide) [compound 260] | C (0.1 or more and less than 0.5) |
| 261 (LCYINLFTHTKV; Description of Artificial Sequence: Cyclic peptide) [compound 261] | C (0.1 or more and less than 0.5) |
| 262 (WCNFANVWTFNKS; Description of Artificial Sequence: Cyclic peptide) [compound 262] | C (0.1 or more and less than 0.5) |
| 263 (QCYHIIVYTFVKP; Description of Artificial Sequence: Cyclic peptide) [compound 263] | C (0.1 or more and less than 0.5) |
| 264 (VCIFTWDRVHWPVKV; Description of Artificial Sequence: Cyclic peptide) [compound 264] | C (0.1 or more and less than 0.5) |
| 265 (VCIYTWDRQSWPVKL; Description of Artificial Sequence: Cyclic peptide) [compound 265] | B (0.5 or more and less than 0.7) |
| 266 (DCIWQWHPWSGYTKL; Description of Artificial Sequence: Cyclic peptide) [compound 266] | A (0.7 or more) |
| 267 (DCIWQWTPTKSFQKL; Description of Artificial Sequence: Cyclic peptide) [compound 267] | A (0.7 or more) |
| 268 (SCIYQWDYVHWPIKL; Description of Artificial Sequence: Cyclic peptide) [compound 268] | C (0.1 or more and less than 0.5) |
| 269 (HCLWQWTPQTHFVKL; Description of Artificial Sequence: Cyclic peptide) [compound 269] | A (0.7 or more) |
| 270 (QCWWTLQVWSYPFHKH; Description of Artificial Sequence: Cyclic peptide) [compound 270] | C (0.1 or more and less than 0.5) |
| 271 (LCQLGVYTYVALFYKF; Description of Artificial Sequence: Cyclic peptide) [compound 271] | C (0.1 or more and less than 0.5) |
| 272 (QCDWVIWQWDPPYIKV; Description of Artificial Sequence: Cyclic peptide) [compound 272] | C (0.1 or more and less than 0.5) |
| 273 (PCWWATQIWTYPFYKV; Description of Artificial Sequence: Cyclic peptide) [compound 273] | C (0.1 or more and less than 0.5) |
| 274 (FCIYTFSRESGLLWKQ; Description of Artificial Sequence: Cyclic peptide) [compound 274] | A (0.7 or more) |
| 275 (LCPLYAWQTLYQYGWK(COCH2)V; thioether 2-16 (inferred)) [compound 275] | A (0.7 or more) |
| 276 (ECIYTFDPQRHPVLVK(COCH2)V; thioether 2-16 (inferred)) [compound 276] | C (0.1 or more and less than 0.5) |
| 277 (TCPVWAWHQAFQFGWK(COCH2)I; thioether 2-16 (inferred)) [compound 277] | C (0.1 or more and less than 0.5) |
| 278 (ICPLYGDQGQAWQYGWK(COCH2)L; thioether 2-17 (inferred)) [compound 278] | A (0.7 or more) |
| 279 (QCLQKVGYLLWQFGWSK(COCH2)I; thioether 2-17 (inferred)) [compound 279] | C (0.1 or more and less than 0.5) |
| 280 (PCPVWGDYGAVHQYGWK(COCH2)V; thioether 2-17 (inferred)) [compound 280] | A (0.7 or more) |
| 281 (YCVYTFDAQDVWRPLRK(COCH2)V; thioether 2-17 (inferred)) [compound 281] | C (0.1 or more and less than 0.5) |
| 282 (FCIYSWNWNNLVRPEFRK(COCH2)V; thioether 2-18 (inferred)) [compound 282] | C (0.1 or more and less than 0.5) |
| 283 (WCWLIPTPWPGVYQFSPK(COCH2)A; thioether 2-18 (inferred)) [compound 283] | B (0.5 or more and less than 0.7) |
| 284 (QCRITLLTIYQWKYAWHK(COCH2)E; thioether 2-18 (inferred)) [compound 284] | C (0.1 or more and less than 0.5) |
